Measured values: publication PMC12363979 (International Journal of Nanomedicine, 2025)

B1: AM14 monoclonal antibody (IgG) (antibody, V domains shown)
VH: EVQLVESGGGVVQPGRSLRLSCAASGFSFSHYAMHWVRQAPGKGLEWVAVISYDGENTYYADSVKGRFSISRDNSKNTVSLQMNSLRPEDTALYYCARDRIVDDYYYYGMDVWGQGATVTVSS
VL: DIQMTQSPSSLSASVGDRVTITCQASQDIKKYLNWYHQKPGKVPELLMHDASNLETGVPSRFSGRGSGTDFTLTISSLQPEDIGTYYCQQYDNLPPLTFGGGTKVEIK
B2: D25 monoclonal antibody (IgG) (antibody, V domains shown)
VH: QVQLVQSGAEVKKPGSSVMVSCQASGGPLRNYIINWLRQAPGQGPEWMGGIIPVLGTVHYAPKFQGRVTITADESTDTAYIHLISLRSEDTAMYYCATETALVVSTTYLPHYFDNWGQGTLVTVSS
VL: DIQMTQSPSSLSAAVGDRVTITCQASQDIVNYLNWYQQKPGKAPKLLIYVASNLETGVPSRFSGSGSGTDFSLTISSLQPEDVATYYCQQYDNLPLTFGGGTKVEIK

Experiments:
[1] = biological target: T1, DS2-I53-50 nanoparticle (DS2-I53-50A co-assembled with I53-50B) (human RSV A, Long strain (paper); …, stabilised); assay: SPR
T1 chain: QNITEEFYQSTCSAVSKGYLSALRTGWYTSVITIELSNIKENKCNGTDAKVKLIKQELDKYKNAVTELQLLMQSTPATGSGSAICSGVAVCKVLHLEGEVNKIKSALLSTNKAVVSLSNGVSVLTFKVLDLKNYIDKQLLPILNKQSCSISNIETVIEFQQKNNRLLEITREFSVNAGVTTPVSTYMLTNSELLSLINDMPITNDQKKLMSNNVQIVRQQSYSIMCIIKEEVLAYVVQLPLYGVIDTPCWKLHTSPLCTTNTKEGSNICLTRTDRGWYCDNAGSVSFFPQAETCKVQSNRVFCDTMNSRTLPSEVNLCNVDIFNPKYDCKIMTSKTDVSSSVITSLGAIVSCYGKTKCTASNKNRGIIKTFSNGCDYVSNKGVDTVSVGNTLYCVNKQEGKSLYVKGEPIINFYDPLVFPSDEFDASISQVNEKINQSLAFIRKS

[2] = biological target: T2, RSV F construct DS2 (stabilized prefusion F trimer) (human RSV A, Long strain (paper); …, stabilised); assay: SPR
T2 chain: T1 chain

Row | Binder | kon [1] [M⁻¹ s⁻¹] | kon [2] [M⁻¹ s⁻¹]
1 | B1 | 4.33e+06 | 438000
2 | B2 | 1.39e+06 | 114000
